# Measurements taken from article PMC12675262 (Journal of Experimental Botany, 2025).
# Target: the molecule itself
# Experiment: SEC
protein,measurement,value
"Synechocystis sp. PCC 6803 fructose-1,6-bisphosphatase (FBPase; slr0952) (enzyme, UniProt P74324 1-347, looked up) MTVSEIHIPNSLLDRDCTTLSRHVLQQLNSFGADAQDLSAIMNRIALAGKLIARRLSRAGLMADVLGFTGETNVQGESVKKMDVFANDVFISVFKQSGLVCRLASEEMEKPYYIPENCPIGRYTLLYDPIDGSSNVDINLNVGSIFAIRQQEGDDLDGSASDLLANGDKQIAAGYILYGPSTILVYSLGSGVHSFILDPSLGEFILAQENIRIPNHGPIYSTNEGNFWQWDEALRDYTRYVHRHEGYTARYSGALVGDIHRILMQGGVFLYPGTEKNPDGKLRLLYETAPLAFLVEQAGGRASDGQKRLLDLIPSKLHQRTPAIIGSAEDVKLVESFISDHKQRQGN",stoichiometry N,4
